Our source for the cytotoxicity on αVβ3 integrin expressing U-87 MG cells (XTT viability, 3 days), IC50 in DM1 equivalent concentration; DM1-usGNP without cRGD 25.2 nM, uptake by U-87 MG cells (high αVβ3 integrin), 1 × 10^8 particles per cell, 60 min, internalised gold by ICP-MS (usGNPs per cell) and Kd values is publication PMC9696180.

In assay [1] the target is αVβ3 integrin (UniProt P06756).
In assay [2] the target is αVβ3 integrin (UniProt P06756). This is another data set of the same source.
Assay [3] deals with αVβ3 integrin (UniProt P06756). The experiment in a line: BLI; Octet Red 96; biotinylated αVβ3 integrin on streptavidin (SAX) biosensors, usGNPs in solution, association 40-60 min; 50 mM HEPES pH 7.4, 150 mM NaCl, 5 mM KCl, 0.1% BSA, 0.05% Tween 20, 50 µM CaCl2; 30 °C; Kd approximated from the response at equilibrium against usGNP concentration, fit to the Hill equation. (In general: BLI is a label-free optical method that tracks binding on a fibre tip over time.)

As to “DM1-cRGD-usGNP, (α-Galactose-C2)135(PEG(8)COOH)115(cRGD)20(DM1)20@Au2000”, in the assay with αVβ3 integrin [1], the cytotoxicity on αVβ3 integrin expressing U-87 MG cells (XTT viability, 3 days), IC50 in DM1 equivalent concentration; DM1-usGNP without cRGD 25.2 nM turned out to be 5 nM.
With “HighcRAD-usGNP, (α-Galactose-C2)145(PEG(8)COOH)85(cRAD)60@Au2000”, the uptake by U-87 MG cells (high αVβ3 integrin), 1 × 10^8 particles per cell, 60 min, internalised gold by ICP-MS (usGNPs per cell) with αVβ3 integrin [2] amounted to 2.7e+06.
Usually Kd stands for the free concentration of one partner at which half of the binding sites on the other are occupied at equilibrium, for simple one-to-one binding. The substance “HighcRGD-usGNP, (α-Galactose-C2)145(PEG(8)COOH)85(cRGD)60@Au2000” registered a Kd with αVβ3 integrin [3] of 0.0292 nM. In addition, the uptake by U-87 MG cells (high αVβ3 integrin), 1 × 10^8 particles per cell, 60 min, internalised gold by ICP-MS (usGNPs per cell) with αVβ3 integrin [2] is 1.67e+07.
Substance “LowcRAD-usGNP, (α-Galactose-C2)145(PEG(8)COOH)125(cRAD)20@Au2000” showed an uptake by U-87 MG cells (high αVβ3 integrin), 1 × 10^8 particles per cell, 60 min, internalised gold by ICP-MS (usGNPs per cell) in the assay with αVβ3 integrin [2] of 1.6e+06.
As to “LowcRGD-usGNP, (α-Galactose-C2)145(PEG(8)COOH)125(cRGD)20@Au2000”, the Kd with αVβ3 integrin [3] was 3.2 nM. Also, the uptake by U-87 MG cells (high αVβ3 integrin), 1 × 10^8 particles per cell, 60 min, internalised gold by ICP-MS (usGNPs per cell) in the assay with αVβ3 integrin [2] was 4.9e+06.
